Results from patent US10718784B2, “Mitochondrial preproteins as markers for Alzheimer's disease” (Albert-Ludwigs-Universität Freiburg, priority 2014, dated 2020).

Assays:
Cym1 = molecular target: T1, Cym1 (Saccharomyces cerevisiae, UniProt P32898); experiment: Peptide degradation assay in soluble mitochondrial extracts; type: biochemical, yeast
T1 construct: endogenous in cells; host or cells: soluble extract of wild-type S. cerevisiae mitochondria (cym1Δ extract as control)
T1 sequence (P32898 17-989): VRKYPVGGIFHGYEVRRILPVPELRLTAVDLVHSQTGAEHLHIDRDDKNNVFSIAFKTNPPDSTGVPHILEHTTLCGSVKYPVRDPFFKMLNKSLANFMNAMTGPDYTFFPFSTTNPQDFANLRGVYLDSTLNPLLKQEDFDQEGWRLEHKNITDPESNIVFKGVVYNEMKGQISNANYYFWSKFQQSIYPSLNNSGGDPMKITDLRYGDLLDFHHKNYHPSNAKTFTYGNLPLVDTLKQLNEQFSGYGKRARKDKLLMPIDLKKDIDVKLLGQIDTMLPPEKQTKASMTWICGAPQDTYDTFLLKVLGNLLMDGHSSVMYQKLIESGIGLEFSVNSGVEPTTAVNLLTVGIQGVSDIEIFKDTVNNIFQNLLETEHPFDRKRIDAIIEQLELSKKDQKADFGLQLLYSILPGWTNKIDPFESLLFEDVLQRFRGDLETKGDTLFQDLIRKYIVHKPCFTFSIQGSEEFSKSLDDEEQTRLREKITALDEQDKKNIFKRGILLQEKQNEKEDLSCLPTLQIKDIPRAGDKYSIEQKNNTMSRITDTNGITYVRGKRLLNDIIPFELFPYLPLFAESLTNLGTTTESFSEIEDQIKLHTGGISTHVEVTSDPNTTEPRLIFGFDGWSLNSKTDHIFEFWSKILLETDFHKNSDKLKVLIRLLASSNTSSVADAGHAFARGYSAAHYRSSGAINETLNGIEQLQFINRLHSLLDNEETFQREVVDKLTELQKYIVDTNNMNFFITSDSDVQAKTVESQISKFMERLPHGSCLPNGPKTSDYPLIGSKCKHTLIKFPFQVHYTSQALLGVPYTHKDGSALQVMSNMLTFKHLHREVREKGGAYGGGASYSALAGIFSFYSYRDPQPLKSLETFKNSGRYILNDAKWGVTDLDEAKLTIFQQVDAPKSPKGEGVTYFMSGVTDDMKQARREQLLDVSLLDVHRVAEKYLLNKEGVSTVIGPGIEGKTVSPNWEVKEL
Experimental: (§1) Isolated mitochondria from yeast strains grown under respiratory conditions were washed with SEM buffer, re-isolated and resuspended in reaction buffer (250 mM sucrose, 10 mM MOPS/KOH, pH 7.2, 80 mM KCl, 5 mM MgCl2, 5 mM KH2PO4) to a concentration of 3 μg/μl. Mitochondria were subjected to sonication (five times 30 s with 30 s breaks on ice, Sonifier250, Branson) followed by centrifugation at 100,000×g for 45 min at 4° C. The obtained supernatant was used for processing and degradation experiments. 0.5 μl of radiolabelled precursor protein and/or various peptides in different concentrations were added to 9 μl of yeast soluble mitochondrial extracts. Reactions were stopped by addition of 4× Laemmli buffer (8% (w/v) SDS, 0.08% (w/v) bromophenol blue, 40% (v/v) glycerol, 240 mM Tris/HCl, pH 6.8) containing 5% (v/v) β-mercaptoethanol and analyzed by SDS-PAGE followed by autoradiography and immunodecoration. Radiolabelled precursor proteins were synthesized with the transcription/translation rabbit reticulate lysate system (Promega) in the presence of ^35S-methionine. Chemical amounts of Cym1 and control protein (Oct1) were synthesized in vitro using the RTS wheat germ system (5 PRIME). 0.5 μl of cell-free translation product was used in the processing assays.

Purified yeast MPP = molecular target: T2, Purified yeast MPP (Saccharomyces cerevisiae, UniProt P10507+P11914); experiment: MPP activity assay: processing of [35S]F1β precursor by purified MPP; type: biochemical, S. cerevisiae; conditions: radiolabelled F1β precursor, increasing peptide concentrations
T2 construct: poly-histidine (N); made in house; host or cells: E. coli BL21, plasmid pVG18
Experimental: E. coli BL21 cells were transformed with plasmid pVG18 (32) that enables the transcription of a single mRNA encoding both β- (with N-terminal poly-histidine tag) and α-MPP subunits (Mas1 and Mas2) from S. cerevisiae. Cell cultures were grown in LB medium (10 g/l tryptone, 5 g/l yeast extract, 10 g/l NaCl) containing 100 μg/ml ampicillin at 37° C. to an OD600 of 0.6. Expression was induced by addition of 1 mM IPTG (Isopropyl β-D-1-thiogalactopyranoside, Formedium) for 4 h. Cells were harvested and snap-frozen in liquid nitrogen. Pellets were resuspended in binding buffer (20 mM Na3PO4, 200 mM NaCl, 20 mM imidazole, pH 7.4) containing 1 mg/ml lysozyme (Sigma) and 10 μg/ml DNaseI (Sigma) and incubated for 1 h at 4° C. for cell lysis. The cell extract was centrifuged at 4000×g to remove unbroken cells. The supernatant was further centrifuged at 100,000×g for 30 min at 4° C. The obtained supernatant was incubated with Ni-NTA resin (Qiagen) for 3 h at 4° C. The resin was washed four times with binding buffer. Bound proteins were eluted with Elution buffer (20 mM Na3PO4, 200 mM NaCl, 200 mM imidazole, pH 7.4). […]
Purified yeast MPP (0.15 μg protein) was incubated in processing buffer (10 mM HEPES/KOH, pH 7.4, 0.1 mM MnCl2, 1 mM DTT, 0.1 mg/ml BSA) for 15 min at 30° C. […] The samples were analyzed by SDS-PAGE followed by autoradiography. Bands were quantified using the Multi Gauge software (Fuji Film). […]

MPP = molecular target: T3, MPP (Saccharomyces cerevisiae, UniProt P10507+P11914); experiment: In vitro processing of [35S]Sod2 precursor in yeast soluble mitochondrial extracts; type: biochemical
T3 construct: endogenous in cells; host or cells: soluble extract of mitochondria isolated from S. cerevisiae strains (wild-type, cym1Δ)
T3 sequence (P10507 21-462): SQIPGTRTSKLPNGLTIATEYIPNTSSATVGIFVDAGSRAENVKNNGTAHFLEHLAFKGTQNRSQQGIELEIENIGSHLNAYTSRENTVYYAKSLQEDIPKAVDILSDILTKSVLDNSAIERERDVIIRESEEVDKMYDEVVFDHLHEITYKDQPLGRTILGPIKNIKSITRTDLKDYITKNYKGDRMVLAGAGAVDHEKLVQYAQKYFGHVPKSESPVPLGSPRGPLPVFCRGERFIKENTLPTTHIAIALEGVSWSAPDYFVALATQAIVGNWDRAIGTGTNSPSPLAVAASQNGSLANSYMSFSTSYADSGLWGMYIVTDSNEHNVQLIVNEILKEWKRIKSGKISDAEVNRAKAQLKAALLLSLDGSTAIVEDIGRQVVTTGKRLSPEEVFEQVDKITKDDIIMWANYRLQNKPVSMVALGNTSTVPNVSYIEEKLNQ
T3 sequence (P11914 14-482): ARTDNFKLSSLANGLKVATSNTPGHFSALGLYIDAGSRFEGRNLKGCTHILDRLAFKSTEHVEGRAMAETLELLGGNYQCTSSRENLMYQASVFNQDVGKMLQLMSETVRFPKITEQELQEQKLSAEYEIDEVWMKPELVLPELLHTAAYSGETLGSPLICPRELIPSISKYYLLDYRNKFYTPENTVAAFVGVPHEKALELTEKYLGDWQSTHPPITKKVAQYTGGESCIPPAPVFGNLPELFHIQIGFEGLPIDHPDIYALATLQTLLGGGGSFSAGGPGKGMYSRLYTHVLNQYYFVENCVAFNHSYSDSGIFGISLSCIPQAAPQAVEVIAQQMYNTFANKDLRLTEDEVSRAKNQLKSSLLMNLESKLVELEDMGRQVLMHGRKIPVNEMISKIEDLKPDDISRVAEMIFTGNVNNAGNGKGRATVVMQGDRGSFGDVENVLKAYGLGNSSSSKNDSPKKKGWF
Experimental: as §1

Oct1 = molecular target: T4, Oct1 (Saccharomyces cerevisiae, UniProt P35999); experiment: In vitro processing of [35S]Cox4 precursor in yeast mitochondrial extract in the presence of octapeptides; type: biochemical; conditions: cym1Δ mitochondrial extract
T4 construct: endogenous in cells; host or cells: soluble extract of wild-type and cym1Δ S. cerevisiae mitochondria
T4 sequence (P35999 38-772): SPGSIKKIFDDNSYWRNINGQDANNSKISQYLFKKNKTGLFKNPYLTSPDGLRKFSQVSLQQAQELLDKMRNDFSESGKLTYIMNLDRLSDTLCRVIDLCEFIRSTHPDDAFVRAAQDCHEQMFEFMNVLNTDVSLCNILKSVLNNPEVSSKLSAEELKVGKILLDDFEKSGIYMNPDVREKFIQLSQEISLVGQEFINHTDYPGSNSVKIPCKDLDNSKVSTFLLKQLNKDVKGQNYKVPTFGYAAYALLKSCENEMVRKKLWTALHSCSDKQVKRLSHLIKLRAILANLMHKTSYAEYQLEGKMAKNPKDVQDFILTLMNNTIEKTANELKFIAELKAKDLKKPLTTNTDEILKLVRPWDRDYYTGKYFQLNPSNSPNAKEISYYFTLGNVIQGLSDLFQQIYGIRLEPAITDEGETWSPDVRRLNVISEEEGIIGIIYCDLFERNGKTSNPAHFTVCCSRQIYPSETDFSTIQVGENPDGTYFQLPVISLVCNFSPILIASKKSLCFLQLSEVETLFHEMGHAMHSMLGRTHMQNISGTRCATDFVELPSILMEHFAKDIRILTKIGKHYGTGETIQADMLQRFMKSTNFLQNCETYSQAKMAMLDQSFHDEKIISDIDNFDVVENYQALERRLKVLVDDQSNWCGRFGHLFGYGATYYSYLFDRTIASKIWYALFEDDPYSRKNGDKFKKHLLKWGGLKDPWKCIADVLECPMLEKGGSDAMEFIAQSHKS
Experimental: as §1

Molecule: Aβ^scrambled: scrambled Aβ peptide KVKGLIDGDHIGDLVYEFMDSNSAIFREGVGAGHVHVAQVEF (SEQ ID No.: 19)
- Effect on Cox4 presequence peptide degradation (Cym1; WT soluble mitochondrial extract, 10 μM Cox4 presequence peptide in each reaction): not

Molecule: Cox4^preseq.: typical presequence peptide MLSLRQSIRFFKPATRTLCSSRYLL (SEQ ID No.: 15)
- Processing activity of purified MPP on F1β precursor in the presence of peptide (Purified yeast MPP): able to inhibit purified MPP
- In vitro processing of radiolabelled Sod2 precursor by MPP in the presence of presequence peptide (MPP; cym1Δ mitochondrial extract (absence of Cym1), 10 μM Cox4 presequence peptide): efficiently blocked
- Degradation of the peptide in wild-type mitochondrial extract (Cym1; wild-type (WT) extract, peptide 10 μM): Rapid degradation

Molecule: octapeptides: octapeptide derived from the Oct1 substrate Sdh1, FTSSALVR (SEQ ID No.: 16), EZ Biolab
- Processing activity of purified MPP on F1β precursor in the presence of peptide (Purified yeast MPP): not affected
- Oct1-dependent processing step of Cox4 precursor in the presence of octapeptides (Oct1): specific impairment of the Oct1-dependent processing step

B1: cell-free translated Cym1 protein: yeast PreP homolog Cym1 synthesized in vitro using the RTS wheat germ system (protein)
chain: MLRFQRFASSYAQAQAVRKYPVGGIFHGYEVRRILPVPELRLTAVDLVHSQTGAEHLHIDRDDKNNVFSIAFKTNPPDSTGVPHILEHTTLCGSVKYPVRDPFFKMLNKSLANFMNAMTGPDYTFFPFSTTNPQDFANLRGVYLDSTLNPLLKQEDFDQEGWRLEHKNITDPESNIVFKGVVYNEMKGQISNANYYFWSKFQQSIYPSLNNSGGDPMKITDLRYGDLLDFHHKNYHPSNAKTFTYGNLPLVDTLKQLNEQFSGYGKRARKDKLLMPIDLKKDIDVKLLGQIDTMLPPEKQTKASMTWICGAPQDTYDTFLLKVLGNLLMDGHSSVMYQKLIESGIGLEFSVNSGVEPTTAVNLLTVGIQGVSDIEIFKDTVNNIFQNLLETEHPFDRKRIDAIIEQLELSKKDQKADFGLQLLYSILPGWTNKIDPFESLLFEDVLQRFRGDLETKGDTLFQDLIRKYIVHKPCFTFSIQGSEEFSKSLDDEEQTRLREKITALDEQDKKNIFKRGILLQEKQNEKEDLSCLPTLQIKDIPRAGDKYSIEQKNNTMSRITDTNGITYVRGKRLLNDIIPFELFPYLPLFAESLTNLGTTTESFSEIEDQIKLHTGGISTHVEVTSDPNTTEPRLIFGFDGWSLNSKTDHIFEFWSKILLETDFHKNSDKLKVLIRLLASSNTSSVADAGHAFARGYSAAHYRSSGAINETLNGIEQLQFINRLHSLLDNEETFQREVVDKLTELQKYIVDTNNMNFFITSDSDVQAKTVESQISKFMERLPHGSCLPNGPKTSDYPLIGSKCKHTLIKFPFQVHYTSQALLGVPYTHKDGSALQVMSNMLTFKHLHREVREKGGAYGGGASYSALAGIFSFYSYRDPQPLKSLETFKNSGRYILNDAKWGVTDLDEAKLTIFQQVDAPKSPKGEGVTYFMSGVTDDMKQARREQLLDVSLLDVHRVAEKYLLNKEGVSTVIGPGIEGKTVSPNWEVKEL
- MPP processing activity (Sod2 precursor) after addition of Cym1 protein (MPP; cym1Δ mitochondrial extract): could be restored
